# Patent US20240238445A1, “INHIBITORS AND USES THEREOF” (NEURACLE SCIENCE CO., LTD., priority 2021, published 2024)
# Ends that are not written are not given here.
# Key:
# [1] = target: hFc-fused hLRRC4B and FAM19A5 complex formation (Homo sapiens, UniProt Q7Z5A7); test: Competitive inhibition assay (IC50), plate coated with LRRC4B(453-576, TT/TT)-hFc; assay type: binding; settings: Table 14; LRRC4B(453-576, TT/TT)-hFc 100 nM coat; peptide 0.03-1000 nM; read-out: IC50 (nM), Inhibition on Complex Formulation between human LRRC4B protein and recombinant FAM19A5 protein (1 ng/mL)
# Method: The in silico analysis provided in Example 9 highlighted that certain T12 and L13 double mutants might be important in improving the binding affinity of the polypeptides of the present disclosure to the FAM19A5 protein. Therefore, the ability of both the wild-type FB-21 peptide (which is the same as the FB-20 peptide described herein except that the FB-21 peptide additionally contains an alanine at the C-terminus) and several FB-21 mutants were tested for their inhibitor effect on hFc-fused hLRRC4B and FAM19A5 complex formation. Briefly, plate was coated with 100 nM of LRRC4B(453-576, TT/TT)-hFc and then 1 ng/ml of rFAM19A5 was incubated at 37° C. in the presence of increasing concentrations of the different FB-21 peptide fragments (0.03, 0.1, 0.3, 1, 3, 10, 30, 100, 300 and 1000 nM). The LRRC4B-bound FAM19A5 levels were measured using HRP-conjugated 1-65 antibody.
# FAM19A5 protein [2] = target: T1, FAM19A5 protein (Homo sapiens, UniProt Q7Z5A7); test: competitive inhibition ELISA, 20 nM peptide, rFAM19A5 1 ng/mL; competitor: coated LRRC4B(453-576)-hFc
# FAM19A5 protein [3] = target: T1, FAM19A5 protein; test: competitive inhibition ELISA, 20 nM peptide, rFAM19A5 5 ng/mL; competitor: coated LRRC4B(36-576)-hFc
# FAM19A5 protein [4] = target: T1, FAM19A5 protein; test: Co-immunoprecipitation of FLAG-tagged LRRC4 family deletion constructs/fragments with recombinant FAM19A5 in HEK293 cells; assay type: binding; settings: HEK293 cells expressing FLAG-tagged construct, recombinant FAM19A5 1 μM 30 minutes; IP anti-FLAG, blot anti-FAM19A5 (3-2)
# Method: To understand the interaction between FAM19A5 and members of the LRRC4 protein family, HEK293 cells were modified to express a FLAG-tagged member of the LRRC4 protein family, i.e., LRRC4C protein, LRRC4 protein, or LRRC4B protein. Then, the HEK293 cells or primary cortical neurons were treated with recombinant FAM19A5 protein (1 μM) for 30 minutes, and the binding between FAM19A5 protein and the different members of the LRRC4 protein family was assessed using both co-immunoprecipitation and immunofluorescence assays.
# For the co-immunoprecipitation assay, cell lysates from the different FAM19A5-treated HEK293 cells were collected and immunoprecipitated with an anti-FLAG antibody, anti-FAM19A5 (1-65) antibody, or a human IgG antibody (control). Immunoprecipitated proteins were immunoblotted with anti-FLAG and anti-FAM19A5 (3-2) antibodies. For the immunofluorescence assay, the HEK293 cells treated with the recombinant FAM19A5 protein were immunostained with anti-FAM19A5 (3-2) (to detect FAM19A5 protein expression) and anti-FLAG antibodies (to detect member of the LRRC4 protein family). The primary cortical neurons treated with the recombinant FAM19A5 protein were immunostained with anti-FAM19A5 (3-2) and anti-LRRC4B antibodies. The nuclei were stained with Hoechst33342 (blue).
# To determine the specific motif or domain of the LRRC4B protein that is responsible for the binding to a FAM19A5 protein, various FLAG-tagged LRRC4B deletion constructs were generated (see Table 6 below). HEK293 cells were transfected with the different deletion constructs and then treated with recombinant FAM19A5 protein as described in Example 1. Then, the cell lysates from the different HEK293 cells were immunoprecipitated with the anti-FLAG antibody. The immunoprecipitated proteins were immunoblotted with anti-FLAG and anti-FAM19A5 (3-2) antibodies.
# As described in Example 2, all members of the LRRC4 protein family were capable of binding to FAM19A5 protein to varying degrees. Therefore, to compare the bindings domains, the amino acid sequences of the LRRC4B, LRRC4, and LRRC4C proteins were aligned. […] Therefore, to assess whether the corresponding positions of LRRC4 and LRRC4C were important in the binding of these proteins to FAM19A5 protein, cDNAs encoding either (i) LRRC4C protein fragment (amino acids 354-527 of SEQ ID NO: 3; SEQ ID NO: 66) or (ii) LRRC4 protein fragment (amino acids 353-527 of SEQ ID NO: 1; SEQ ID NO: 67) were constructed (see Table 7). HEK293 cells were transfected to express either of the protein fragments and then treated with recombinant FAM19A5 protein as described in Example 1. Then, the cell lysates from the different HEK293 cells were immunoprecipitated with the anti-FLAG antibody. The immunoprecipitated proteins were immunoblotted with anti-FLAG and anti-FAM19A5 (3-2) antibodies.
# Target sequence in this assay (Q7Z5A7 44-132): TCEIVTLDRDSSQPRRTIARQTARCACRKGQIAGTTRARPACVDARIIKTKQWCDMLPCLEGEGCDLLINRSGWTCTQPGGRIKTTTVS
# FAM19A5 protein [5] = target: T1, FAM19A5 protein; test: ELISA binding of recombinant FAM19A5 to coated hFc-conjugated LRRC4 family ectodomains, fragments or synthetic peptides; settings: hFc-conjugated ectodomain coated 100 nM/well, FAM19A5 0.005-10 nM, 37° C. 1 hour
# Method: Next, to confirm the above co-immunoprecipitation results, an ELISA assay was used to measure the binding of the FAM19A5 protein to either the full-length ectodomain of members of LRRC4 protein family or various LRRC4B ectodomain protein fragments. Specifically, an ELISA plate was coated with one of the following LRRC4B ectodomain protein, which was conjugated to human Fc (100 nM/well): (1) full-length ectodomain of LRRC4 protein (amino acid residues 39-527 of SEQ ID NO: 1) (SEQ ID NO: 4); (2) full-length ectodomain of LRRC4B protein (amino acids 36-576 of SEQ ID NO: 2; i.e., construct #7 in Table 6) (SEQ ID NO: 5); (3) full-length ectodomain of LRRC4C protein (amino acids 45-527 of SEQ ID NO: 3) (SEQ ID NO: 6); (4) LRRC4B ectodomain fragment (amino acids 453-576 of SEQ ID NO: 2; i.e., construct #11 in Table 6) (SEQ ID NO: 7); (5) LRRC4B ectodomain fragment (amino acids 484-576 of SEQ ID NO: 2; i.e., construct #12 in Table 6) (SEQ ID NO: 8); (6) LRRC4B ectodomain fragment (amino acids 482-576 of SEQ ID NO: 2) (SEQ ID NO: 9); (7) LRRC4B ectodomain fragment (amino acids 482-497 of SEQ ID NO: 2) (SEQ ID NO: 10); and (8) LRRC4B ectodomain fragment (amino acids 498-576 of SEQ ID NO: 2; i.e., construct #13 in Table 6) (SEQ ID NO: 11). Then, recombinant FAM19A5 proteins (0.005, 0.01, 0.025, 0.05, 0.1, 0.25, 0.5, 1, 2.5, 5, and 10 nM) were added to the relevant wells, and the plates were incubated at 37° C. for 1 hour. Afterwards, the amount of LRRC4B-bound FAM19A5 protein was detected using HRP-conjugated anti-FAM19A5 (1-65) antibody.
# As further confirmation, three synthetic polypeptides comprising amino acids 484-497 of SEQ ID NO: 2 (i.e., YTYFTTVTVETLET; SEQ ID NO: 65) were constructed: (1) FB-16 (GYTYFTTVTVETLETQ; SEQ ID NO: 17), (2) FB-20 ([…]; SEQ ID NO: 18), and (3) FB-28 ([…]; SEQ ID NO: 19). The peptides differed in their total length. The ability of these polypeptides to bind to recombinant FAM19A5 protein was assessed using an ELISA assay as described above.
# Target sequence in this assay (Q7Z5A7 44-132): as above
Inhibition rate (%) (FAM19A5 protein [2]),Inhibition rate (%) (FAM19A5 protein [3]),Molecule,also measured
,,GYTYFTTVTVEMRETQPGEEA [FB-21 (M12R13)],IC50 [1]: 47.9 nM
,,GYTYFTTVTVEIFETQPGEEA [FB-21 (I12F13)],IC50 [1]: 9.9 nM
,,GYTYFTTVTVEQRETQPGEEA [FB-21 (Q12R13)],IC50 [1]: 39.9 nM
,,GYTYFTTVTVEPYETQPGEEA [FB-21 (P12Y13)],IC50 [1]: 39 nM
,,GYTYFTTVTVEHFETQPGEEA [FB-21 (H12F13)],IC50 [1]: 9.8 nM
-1.6%,2.5%,KNYFTTVTVETNKETQ [FB-m9dN],
,,"LRRC4C peptide fragment: LRRC4C protein fragment, amino acids 354-527 of SEQ ID NO: 3 (protein) VIVEPPADLNVTEGMAAELKCRASTSLTSVSWITPNGTVMTHGAYKVRIAVLSDGTLNFTNVTVQDTGMYTCMVSNSVGNTTASATLNVTAATTTPFSYFSTVTVETMEPSQDEARTTDNNVGPTPVVDWETTNVTTSLTPQSTRSTEKTFTIPVTDINSGIPGIDEVMKTTK",binding to FAM19A5 protein (co-immunoprecipitation) (FAM19A5 protein [4]): able to bind to the FAM19A5 protein
-0.9%,5.1%,KNYTYFTTVTNKETQ [FB-m8dC],
,,"LRRC4B (364-576): FLAG-tagged LRRC4B deletion construct, amino acids 364-576 of SEQ ID NO: 2 (protein, FLAG tag) PVIVEPPTDLNVTEGMAAELKCRTGTSMTSVNWLTPNGTLMTHGSYRVRISVLHDGTLNFTNVTVQDTGQYTCMVTNSAGNTTASATLNVSAVDPVAAGGTGSGGGGPGGSGGVGGGSGGYTYFTTVTVETLETQPGEEALQPRGTEKEPPGPTTDGVWGGGRPGDAAGPASSSTTAPAPRSSRPTEKAFTVPITDVTENALKDLDDVMKTTK",binding to FAM19A5 protein (co-immunoprecipitation) (FAM19A5 protein [4]): able to bind to the FAM19A5 protein with varying degree
30.4%,65%,KNYTYFTTVTVETNKETQ [FB-m11dC],
,,"LRRC4 full-length ectodomain: full-length ectodomain of LRRC4 protein, amino acid residues 39-527 of SEQ ID NO: 1, conjugated to human Fc (protein, conjugated to human Fc) ASAGPQNCPSVCSCSNQFSKVVCTRRGLSEVPQGIPSNTRYLNLMENNIQMIQADTFRHLHHLEVLQLGRNSIRQIEVGAFNGLASLNTLELFDNWLTVIPSGAFEYLSKLRELWLRNNPIESIPSYAFNRVPSLMRLDLGELKKLEYISEGAFEGLFNLKYLNLGMCNIKDMPNLTPLVGLEELEMSGNHFPEIRPGSFHGLSSLKKLWVMNSQVSLIERNAFDGLASLVELNLAHNNLSSLPHDLFTPLRYLVELHLHHNPWNCDCDILWLAWWLREYIPTNSTCCGRCHAPMHMRGRYLVEVDQASFQCSAPFIMDAPRDLNISEGRMAELKCRTPPMSSVKWLLPNGTVLSHASRHPRISVLNDGTLNFSHVLLSDTGVYTCMVTNVAGNSNASAYLNVSTAELNTSNYSFFTTVTVETTEISPEDTTRKYKPVPTTSTGYQPAYTTSTTVLIQTTRVPKQVAVPATDTTDKMQTSLDEVMKTTK",EC50 (FAM19A5 protein [5]): 0.48 nM
0.4%,4.4%,KNYTYFTTVNKETQ [FB-m7dC],
21.9%,62%,KNYTYFTTVTVENKETQ [FB-m10dC],
,,"LRRC4 peptide fragment: LRRC4 protein fragment, amino acids 353-527 of SEQ ID NO: 1 (protein) PFIMDAPRDLNISEGRMAELKCRTPPMSSVKWLLPNGTVLSHASRHPRISVLNDGTLNFSHVLLSDTGVYTCMVTNVAGNSNASAYLNVSTAELNTSNYSFFTTVTVETTEISPEDTTRKYKPVPTTSTGYQPAYTTSTTVLIQTTRVPKQVAVPATDTTDKMQTSLDEVMKTTK",binding to FAM19A5 protein (co-immunoprecipitation) (FAM19A5 protein [4]): able to bind to the FAM19A5 protein
0%,7.7%,KNTYFTTVTVETNKETQ [FB-m10dN],
-1.1%,3.3%,KNFTTVTVETNKETQ [FB-m8dN],
5.5%,14.9%,KNYTYFTTNKETQ [FB-m6dC],
2.7%,16.8%,KNYTYFTTVTVNKETQ [FB-m9dC],
-1.8%,2%,KNTTVTVETNKETQ [FB-m7dN],
